Numbering of substitutions follows the chain as printed.
Assays:
[1] = biological target: AAV2 capsid (AAV2-Luciferase vector) (adeno-associated virus 2) (UniProt P03135); assay: cell-based or functional assay
[2] = biological target: IgG affixed to the BLI probe; assay: BLI kinetic analysis, 1:1 fit, protein M 15.6-250 nM, IgG on Anti-Mouse IgG Fc Capture biosensor (mouse IgG per paragraph 316), 37 C
[3] = biological target: IgG affixed to the BLI probe; assay: BLI kinetic analysis, 1:1 fit, protein M 15.6-250 nM, IgG on Anti-Mouse IgG Fc Capture biosensor (mouse IgG per paragraph 316), 37 C; same row: KD error 0.2 nM, X2 2.5, R2 1.00
[4] = biological target: IgG affixed to the BLI probe; assay: BLI kinetic analysis, 1:1 fit, protein M 15.6-250 nM, IgG on Anti-Mouse IgG Fc Capture biosensor (mouse IgG per paragraph 316), 37 C; same row: KD error 0.2 nM, X2 1.9, R2 1.00
[5] = biological target: IgG affixed to the BLI probe; assay: BLI at 37° C, IgG Fc capture biosensor (AHC or AMC, not told which), 1:1 fit, max conc. 50 nM, 6 points
[6] = biological target: IgG affixed to the BLI probe; assay: BLI at 37° C, IgG Fc capture biosensor (AHC or AMC, not told which), 1:1 fit, max conc. 250 nM, 5 dilutions
[7] = biological target: IgG affixed to the BLI probe; assay: BLI kinetic analysis, 1:1 fit, protein M 15.6-250 nM, IgG on Anti-Mouse IgG Fc Capture biosensor (mouse IgG per paragraph 316), 37 C; same row: KD error 0.5 nM, X2 2.4, R2 0.99
[8] = biological target: human intravenous immunoglobulin gamma (IVIG), 10% Human IVIG (Gamunex) (human); assay: cell-based or functional assay
[9] = biological target: AAV2 capsid (AAV2-Luciferase vector) (adeno-associated virus 2) (UniProt P03135); assay: cell-based or functional assay; remark: listed apart in the source

Sequence of UniProt P03135 (P03135 whole entry, the tested form may be a part): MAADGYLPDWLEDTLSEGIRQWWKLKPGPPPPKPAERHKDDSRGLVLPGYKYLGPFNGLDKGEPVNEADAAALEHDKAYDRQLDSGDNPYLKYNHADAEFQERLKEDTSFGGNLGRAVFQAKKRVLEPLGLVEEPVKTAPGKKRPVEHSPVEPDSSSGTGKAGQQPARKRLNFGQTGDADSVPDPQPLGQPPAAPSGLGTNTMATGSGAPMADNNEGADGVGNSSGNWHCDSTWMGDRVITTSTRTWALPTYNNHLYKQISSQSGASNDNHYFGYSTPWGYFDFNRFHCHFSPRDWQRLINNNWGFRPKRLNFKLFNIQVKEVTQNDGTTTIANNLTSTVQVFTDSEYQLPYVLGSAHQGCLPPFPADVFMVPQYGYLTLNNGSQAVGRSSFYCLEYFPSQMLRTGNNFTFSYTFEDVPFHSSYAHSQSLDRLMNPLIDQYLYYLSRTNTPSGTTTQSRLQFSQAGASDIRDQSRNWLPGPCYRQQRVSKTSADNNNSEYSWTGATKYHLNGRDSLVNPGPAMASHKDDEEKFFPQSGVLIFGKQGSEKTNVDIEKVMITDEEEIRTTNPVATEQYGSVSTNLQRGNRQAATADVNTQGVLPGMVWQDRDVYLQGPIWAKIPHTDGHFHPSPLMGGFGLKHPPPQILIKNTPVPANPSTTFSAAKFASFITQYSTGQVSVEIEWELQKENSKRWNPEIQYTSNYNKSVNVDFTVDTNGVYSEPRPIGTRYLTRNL

“protein M without cleavage of the His tag (from UniProt P47523 37-556)” showed a molar ratio of protein M to AAV2 particle at which enhancement begins to saturate (protein M molecules per AAV2 particle) [1] of 700000 and a molar ratio of protein M to AAV2 particle below which enhancement of the luciferase signal is abolished (protein M molecules per AAV2 particle) [1] of less than 40000.

Molecule MG WT has a koff [2] of 0.00033 s⁻¹, a kon [2] of 28000 M⁻¹ s⁻¹ and a Kd [3] of 11.9 nM.

B1: MG 40 (protein, part only)
chain: SLSLNDGSYQSEIDLSGGANFREKFRNFANELSEAITNSPKGLDRPVPKTEISGLIKTGDNFITPSFKAGYYDHVASDGSLLSYYQSTEYFNNRVLMPILQTTNGTLMANNRGYDDVFRQVPSFSGWSNTKATTVSTSNNLTYDKWTYFAAKGSPLYDSYPNHFFEDVKTLAIDAKDISALKTTIDSEKPTYLIIRGLSGNGSQLNELQLPESVKKVSLYGDYTGVNVAKQIFANVVELEFYSTSKANSFGFNPLVLGSKTNVINDLFASKPFTHIDLTQVPLQNSDNSAIDANKLKQAVGDIYNYRRFERQFQGYFAGGYIDKYLVKNVNTNKDSDDDLVYRSLKELNLHLEEAYREGDNTYYRVNENYYPGASIYENERASRDSEFQNEILKRAEQNGVTFDEN
modifications: N-terminal His-tag and thrombin site
B1 gave a Kd [4] of 10.1 nM, a koff [2] of 0.00031 s⁻¹ and a kon [2] of 31000 M⁻¹ s⁻¹.

B2: MG66* (modified M. genitalium protein M MG66 with Y338) (protein)
chain: B1 chain with S77E, S123R, S125P, A132P, S159Q, F164T, N201D, N265Y, A269V
Work on B2 yielded a Kd [5] of 0.69 nM, a koff [5] of 5.55e-05 s⁻¹ and a kon [5] of 80100 M⁻¹ s⁻¹.

B3: MG WT* (truncated M. genitalium protein M, amino acids 74-479, with Y338) (protein)
chain: B1 chain with N265Y, P282T
B3 showed a Kd [5] of 0.8 nM, a koff [5] of 6.73e-05 s⁻¹ and a kon [5] of 83800 M⁻¹ s⁻¹.

B4: MG29 (modified M. genitalium protein M MG29, N338) (protein, not shown: small tags and cut ends)
chain: B1 chain with S77E, S123R, S125P, S159Q, F164T, A269V, P282T
For B4, the Kd [6] was 7.9 nM, the koff [6] was 0.00034 s⁻¹ and the kon [6] was 43000 M⁻¹ s⁻¹.

B5: MG 31 (protein, part only)
chain: B1 chain with P282T, V300I, V327I, N329I, K334P, S336V, L340I, T362I
modifications: N-terminal His-tag and thrombin site
Work on B5 yielded a Kd [7] of 15.5 nM, a koff [2] of 0.00047 s⁻¹ and a kon [2] of 30000 M⁻¹ s⁻¹.

B6: protein M (SEQ ID NO:2), His-tag removed by thrombin cleavage (protein)
chain: HHHHHHSSGLVPRGSHMTNLVNQSGYALVASGRSGNLGFKLFSTQSPSAEVKLKSLSLNDGSYQSEIDLSGGANFREKFRNFANELSEAITNSPKGLDRPVPKTEISGLIKTGDNFITPSFKAGYYDHVASDGSLLSYYQSTEYFNNRVLMPILQTTNGTLMANNRGYDDVFRQVPSFSGWSNTKATTVSTSNNLTYDKWTYFAAKGSPLYDSYPNHFFEDVKTLAIDAKDISALKTTIDSEKPTYLIIRGLSGNGSQLNELQLPESVKKVSLYGDYTGVNVAKQIFANVVELEFYSTSKANSFGFNPLVLGSKTNVIYDLFASKPFTHIDLTQVTLQNSDNSAIDANKLKQAVGDIYNYRRFERQFQGYFAGGYIDKYLVKNVNTNKDSDDDLVYRSLKELNLHLEEAYREGDNTYYRVNENYYPGASIYENERASRDSEFQNEILKRAEQNGVTFDENIKRITASGKYSVQFQKLENDTDSSLERMTKAVEGLVTVIGEEKFETVDITGVSSDTNEVKSLAKELKTNALGVKLKL
With B6 the AAV2-Luciferase signal, % of no-IVIG control, at 8:1 molar ratio (33 µg protein M, 12.5 µg IVIG) (% of no-IVIG control) [8] was 194, the AAV2-Luciferase signal, % of no-IVIG control, at 20:1 molar ratio (75 µg protein M, 12.5 µg IVIG) (% of no-IVIG control) [8] was 256 and the AAV2-Luciferase signal, % of no-IVIG control, at protein M:IgG molar ratio 0.5:1 (% of no-IVIG control) [8] was 40. It also gave an AAV2-Luciferase signal, % of no-IVIG control, at protein M:IgG molar ratio 1:1 (% of no-IVIG control) [8] of 52, an AAV2-Luciferase signal, % of no-IVIG control, at protein M:IgG molar ratios greater than 2:1 (12.5 µg IVIG) (% of no-IVIG control) [8] of 108 to 193 and a molar ratio of protein M to IgG sufficient to prevent AAV2 neutralization (protein M molecules per IgG molecule) [8] of 2. It also gave an AAV2-Luciferase signal, % of PBS control, 33 µg protein M incubated alone with AAV2 (% of PBS control) [9] of 216 and an AAV2-Luciferase signal, % of PBS control, 75 µg protein M incubated alone with AAV2 (% of PBS control) [9] of 208.

From patent US20240309055A1
